Experimental data from patent US20040210042A1 (published 2004).
Ends that are not written are not given here.

Target: T1, polypeptide translated from the polynucleotide of SEQ ID NO: 62 (human, UniProt Q05513 356-592)
T1 construct: retested as a pGBKT7 fusion in yeast AH109
T1 sequence: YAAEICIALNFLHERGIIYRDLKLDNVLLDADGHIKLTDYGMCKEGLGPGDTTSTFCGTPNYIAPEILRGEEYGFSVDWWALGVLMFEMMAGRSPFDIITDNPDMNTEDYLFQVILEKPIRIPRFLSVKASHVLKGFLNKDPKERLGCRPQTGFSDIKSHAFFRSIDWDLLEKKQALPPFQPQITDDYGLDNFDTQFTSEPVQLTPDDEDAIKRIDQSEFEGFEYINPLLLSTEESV
Test: yeast two-hybrid screen, LexA system, histidine and LacZ reporters, human kidney library
Description: Then, the Human kidney […] LexA library (manufactured by Clontech Co., Ltd.) was introduced to the above-described strain and 10⁶ colonies were screened. At the first screening, a histidine-deficient medium was used and about 200 colonies were selected based on the expression of a histidine gene, which was a reporter of the interaction. At the second screening, 31 colonies were obtained based on the expression of LacZ, which was another reporter of the interaction. Finally, 31 clones each of which had been confirmed to surely have two kinds of reporter activities were selected. The above procedures were carried out on the basis of protocols of the yeast two-hybrid method from Invitrogen Co., Ltd. and Clontech Co., Ltd.
The library vectors were recovered from the yeast colonies selected as described above, and the nucleotide sequences were analyzed using the DNA sequencer (the same as above). The nucleotide sequences are shown in SEQ ID NOS: 33 to 63 in the Sequence Listing.

binding result: binds
B1: cytoplasmic domain of RAGE (receptor for advanced glycation endproduct) (receptor, UniProt Q15109 364-404, looked up)
chain: QRRQRRGEERKAPENQEEEEERAELNQSEEPEAGESSTGGP
modifications: not fully specified
notes: domain: cytoplasmic domain; also called RAGECD; RAGECD fragments
